Measurements as given in patent publication US20200397816A1, “METHODS TO TREAT INFLAMMATORY AND SMOOTH MUSCLE CELL PROLIFERATION DISORDERS” (THE TRUSTEES OF INDIANA UNIVERSITY, priority 2019, published 2020).
Entries after “also recorded” stand apart in the source; their conditions may differ.

Legend:
SphK1 [1] = assay: SphK1 protein western blot in hPASMC; format: cell-based, human; conditions: SMCs; EMAP II 6 hours
Experimental: (§1) RAW 264.7 (ATCC) mouse macrophages and Human Embryonic Kidney (HEK) 293T cells were cultured in DMEM media with 10% fetal bovine serum […] and glutamine HEPES buffer and beta-mercaptoethanol were added to the growth medium used for RAW 264.7 macrophages. […]
(§2) After appropriate treatments, protein lysates were prepared by using RIPA buffer supplemented with phosphatase and protease inhibitors (Thermo Fischer Scientific). […] Western blots were performed according to standard methods and quantified using densitometry using Image Studio Lite software from LI-COR Biosciences. […]
as §2, with “Fisher” for “Fischer”

SphK1 [2] = assay: SphK1 transcripts qRT-PCR in hPASMC; format: cell-based, human; conditions: SMCs
Experimental: as §1
(§3) Total RNA was extracted with TriZol using standard RNA extraction protocol and reverse transcribed with SuperScript III Reverse Transcriptase (Thermo Fischer Scientific). SphK1, Tnf, Il6, EGR1, Gapdh, Hprt1 transcripts were quantified using PrimePCR SYBR Green assays from BioRad. […]
(§4) Total RNA was extracted with TriZol using standard RNA extraction protocol and reverse transcribed with SuperScript III Reverse Transcriptase (Thermo Fisher Scientific). SPHK1, Tnf, Il6, EGR1, Gapdh, Hprt1 transcripts were quantified using PrimePCR SYBR Green assays from BioRad.

pSphK1 = pSphK1 immunofluorescence in THP-1 macrophages; format: cell-based, human; conditions: THP1 macrophages; 1 hour EMAP II
Experimental: Few passages after thawing of THP-1 cell line, cells were seeded in Nunc Lab-Tek™ II 4-well imaging plates and treated with 100 nM Phorbol myristate acetate (InvivoGen, CA) for 3 days allowing THP-1 monocytes to differentiate into macrophages.
Primary hPASMCs cells or human THP-1 macrophages were seeded in Nunc Lab-Tek™ II 4-well imaging plates (Thermo Fisher Scientific) chamber well slides and cultured in growth medium. After the serum starvation cells were stimulated with EMAP II. Treated cells were rinsed with PBS and fixed with 4% paraformaldehyde at room temperature for 15 min and permeabilized with 0.1% Triton X-100 at room temperature for 10 min After washing with PBS three times, the cells were incubated with EGR1, 1amin, or pSphK1 antibody at 40C overnight. The cells were then rinsed with PBS three times and subsequently incubated with respective secondary antibody conjugated with Alex Fluor 647 and 488 or Phalloidin 488 at room temperature for 1 h. The cells were rinsed with PBS three times and coverslips were mounted with SlowFade Gold Antifade Mountant with DAPI (Thermo Fischer Scientific) and the cells were examined under Olympus microscope with 40× for EGR1 expression and with 60× for pSphK1 water immersion. […]

S1P = assay: ELISA for S1P quantification in hPASMC; format: cell-based, human; conditions: SMCs; peaks at 1 hour and 6 hour; normalized against protein
Experimental: Equal number of hPASMC cells (1,000,000) were plated and serum starved for overnight. Cells were stimulated for in a series of time points and collected the cells. Cells were pelleted out and washed with PBS. After the lysis protein concentration was measured. S1P levels were measured using S1P ELISA kit (MyBioSource, MBS069092) following manufacturer's instructions. S1P levels were normalized against protein levels.

Tnf [3] = assay: Tnf transcripts qRT-PCR in RAW 264.7 macrophages; format: cell-based, mouse; conditions: EMAP II time course
Experimental: as §1, §3, §4

TNF [4] = assay: TNF in SMCs (data not shown); format: cell-based, human

B1: EMAP II: 6x-His tagged recombinant EMAP II, cleaved C-terminal peptide of AIMP1 (SEQ ID NO: 2), pro-inflammatory cytokine (protein)
chain: IAGSADSKPIDVSRLDLRIGCIITARKHPDADSLYVEEVDVGEIAPRTVVSGLVNHVPLEQMQNRMVILLCNLKPAKMRGVLSQAMVMCASSPEKIEILAPPNGSVPGDRITFDAFPGEPDKELNPKKKIWEQIQPDLHTNDECVATYKGVPFEVKGKGVCRAQTMSNSGIK
With B1 the SphK1 protein expression (SphK1 [1]) was “significant overexpression; also recorded: significantly increased”, the “time of peak SphK1 transcription after EMAP II stimulation” value (SphK1 [2]) was 3 h and the “pSphK1 localization to the plasma membrane” value (pSphK1) was “stimulated translocation; also recorded: elevated levels of pSPHK1”. The “intracellular S1P levels (ELISA)” value (S1P) was “significant bimodal pattern”, the Tnf transcription level (Tnf [3]) was “increased” and the TNF induction (TNF [4]) was “absent”.
